Experimental data as given in PMC3706335, “Biophysical characterization and crystal structure of the Feline Immunodeficiency Virus p15 matrix protein” (Retrovirology, 2013).

B1: FIV p15 matrix protein, full-length, with C-terminal 6-His tag (natural protein)
chain: MGNGQGRDWKMAIKRCSNVAVGVGGKSKKFGEGNFRWAIRMANVSTGREPGDIPETLDQLRLVICDLQERREKFGSSKEIDMAIVTLKVFAVAGLLNMTVSTAAAAENMYSQMGLDTRPSMKEAGGKEEGPPQAY
notes: matrix protein p15, the N-terminal subunit of the Gag polyprotein of Feline Immunodeficiency Virus, Petaluma strain (plasmid FIV-34TF10); not myristoylated; also called p15-His; full-length p15; not shown: His6, C-terminal, kept
B2: FIV p15-Δ120, C-terminal-truncated p15 (truncated after Ser120) with C-terminal 6-His tag (domain or fragment)
chain: MGNGQGRDWKMAIKRCSNVAVGVGGKSKKFGEGNFRWAIRMANVSTGREPGDIPETLDQLRLVICDLQERREKFGSSKEIDMAIVTLKVFAVAGLLNMTVSTAAAAENMYSQMGLDTRPS
notes: matrix protein p15 of the Gag polyprotein of Feline Immunodeficiency Virus, Petaluma strain, truncated after Ser120 (lacks the last 14 residues); residues 2 to 120 seen in the crystal; also called truncated FIV p15; not shown: His6, C-terminal, kept
B3: FIV p15-Δ120-R40S (domain or fragment)
chain: MGNGQGRDWKMAIKRCSNVAVGVGGKSKKFGEGNFRWAISMANVSTGREPGDIPETLDQLRLVICDLQERREKFGSSKEIDMAIVTLKVFAVAGLLNMTVSTAAAAENMYSQMGLDTRPS
notes: matrix protein p15 of the Gag polyprotein of Feline Immunodeficiency Virus, truncated after Ser120 as m3, with Arg40 mutated to serine; Made from the truncated p15 construct

Columns and labels:
[1] = biological target: the molecule itself; assay: SEC-MALS; 0.2 ml of his-tagged p15 at 6 mg/ml in 50 mM MES pH 6 on Superdex 200 10/30 in 50 mM MES pH 6
[2] = biological target: the molecule itself; assay: ITC; dilution experiment, dimer to monomers: p15 at 6 mg/ml (375 μM) in 50 mM MES pH 6 injected into buffer alone, 25°C, dimer dissociation model
[3] = biological target: the molecule itself; assay: cross-linking; BS3, room temperature, SDS-PAGE; protein at 6 mg/ml in 50 mM MES pH 6

Protein | stoichiometry N [1] | Kd [2] | binding result [3]
B1 | 2 | ~10 µM | 
B2 |  |  | binds
B3 |  |  | binds
